Consider one molecule from US20250051474A1, “ANTI-CD97 ANTIBODIES AND ANTIBODY-DRUG CONJUGATES” (New York University, priority 2023, published 2025).

Holding throughout (assay): cell-based binding assay: CD97 GAIN mutant transiently expressed on ExpiCHO cells, A8 Fab titrated, flow cytometry MFI, 1:1 fit; upper panel
(Flow cytometry measures light scatter and fluorescence of single cells or particles in a stream.)

Assay [1] addresses T1, CD97 GAIN mutant Q376A expressed on ExpiCHO cells (human, UniProt P48960 21-835).
T1 construct: numbering of isoform 1; whole entry named
T1 sequence: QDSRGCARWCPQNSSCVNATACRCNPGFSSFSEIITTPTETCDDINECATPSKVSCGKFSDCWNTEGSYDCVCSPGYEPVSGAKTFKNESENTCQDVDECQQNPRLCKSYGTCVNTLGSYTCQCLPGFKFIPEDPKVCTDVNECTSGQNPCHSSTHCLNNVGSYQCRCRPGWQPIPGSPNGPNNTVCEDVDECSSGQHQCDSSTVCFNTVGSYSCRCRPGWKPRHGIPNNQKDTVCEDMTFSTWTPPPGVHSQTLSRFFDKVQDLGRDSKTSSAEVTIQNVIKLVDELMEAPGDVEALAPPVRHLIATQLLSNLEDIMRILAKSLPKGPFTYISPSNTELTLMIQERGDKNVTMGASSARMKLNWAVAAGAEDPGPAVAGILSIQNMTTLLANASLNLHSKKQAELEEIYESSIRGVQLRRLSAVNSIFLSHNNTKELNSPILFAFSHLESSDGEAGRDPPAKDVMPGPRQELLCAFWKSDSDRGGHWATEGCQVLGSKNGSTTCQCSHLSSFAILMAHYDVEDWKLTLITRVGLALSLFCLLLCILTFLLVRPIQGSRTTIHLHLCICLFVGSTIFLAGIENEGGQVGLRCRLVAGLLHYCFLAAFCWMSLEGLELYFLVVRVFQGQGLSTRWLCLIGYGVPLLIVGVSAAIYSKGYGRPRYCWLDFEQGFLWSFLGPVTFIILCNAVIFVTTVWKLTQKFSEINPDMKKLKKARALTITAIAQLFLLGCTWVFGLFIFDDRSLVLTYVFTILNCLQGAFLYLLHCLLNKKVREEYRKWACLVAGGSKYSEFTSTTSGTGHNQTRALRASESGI

Another assay deals with T2, R380A (human, UniProt P48960).
T2 construct: transiently expressed on the surface of ExpiCHO cells, gated by anti-V5 tag staining; also called CD97 GAIN mutant R380A expressed on ExpiCHO cells
T2 sequence (receptor, looked up): T1 sequence with A356Q, R360A

The target in a further assay is T3, K519A (human, UniProt P48960).
T3 construct: transiently expressed on the surface of ExpiCHO cells, gated by anti-V5 tag staining; also called CD97 GAIN mutant K519A expressed on ExpiCHO cells
T3 sequence (receptor, looked up): T1 sequence with A356Q, K499A

Residue numbers refer to the chain shown, from its start.

B1: Antibody clone A8, Fab format (Fab, V domains shown)
VH: EVQLVESGGGLVQPGGSLRLSCAASGFTISSYSIHWVRQAPGKGLEWVASISPYYGSTSYADSVKGRFTISADTSKNTAYLQMNSLRAEDTAVYYCARSWYYYEQNPYWYQKEEQALDYWGQGTLVTVSS
VL: DIQMTQSPSSLSASVGDRVTITCRASQSVSSAVAWYQQKPGKAPKLLIYSASSLYSGVPSRFSGSRSGTDFTLTISSLQPEDFATYYCQQSVYSPVTFGQGTKVEIKR
notes: Fab; also called wild type A8
As a reminder, the Kd is the constant that tells how readily two partners part at equilibrium. With B1, the dissociation constant (Kd) in assay [1] came to 310 nM; with R380A, 160 nM; in the assay with K519A, 110 nM.
